# Positions count from the first letter of the chain named. Numbers in names are those of the source. Residues, ends and D or L forms follow the SMILES beside them.
# T1: Kell protein (Homo sapiens, UniProt P23276)
# T1 construct: placing the cDNA that encodes the extracellular portion of Kell in a baculovirus transfer vector pAcGP67-A; made in house; host or cells: sf9 insect cells, baculovirus (pAcGP67A), protein-containing culture medium
# T1 sequence (P23276 68-732): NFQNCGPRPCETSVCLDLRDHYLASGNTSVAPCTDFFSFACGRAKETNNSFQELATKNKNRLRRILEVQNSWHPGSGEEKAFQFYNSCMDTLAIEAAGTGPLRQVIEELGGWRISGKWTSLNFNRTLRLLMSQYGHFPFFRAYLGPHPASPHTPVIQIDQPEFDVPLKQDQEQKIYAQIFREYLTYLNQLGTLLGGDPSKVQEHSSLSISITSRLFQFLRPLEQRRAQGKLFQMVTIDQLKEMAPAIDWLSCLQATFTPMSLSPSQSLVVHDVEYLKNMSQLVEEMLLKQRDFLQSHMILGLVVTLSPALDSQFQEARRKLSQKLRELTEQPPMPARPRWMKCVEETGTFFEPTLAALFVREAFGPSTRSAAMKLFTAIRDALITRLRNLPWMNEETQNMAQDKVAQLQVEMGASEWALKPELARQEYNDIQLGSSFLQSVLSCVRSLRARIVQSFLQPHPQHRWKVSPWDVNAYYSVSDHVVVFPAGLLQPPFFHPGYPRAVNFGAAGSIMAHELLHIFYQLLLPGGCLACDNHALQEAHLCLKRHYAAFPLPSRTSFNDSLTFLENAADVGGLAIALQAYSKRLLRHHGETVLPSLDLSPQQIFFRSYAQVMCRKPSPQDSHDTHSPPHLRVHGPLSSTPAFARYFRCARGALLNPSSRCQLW
# T2: Kell protein (Homo sapiens, UniProt P23276)
# T2 sequence (P23276 1-732): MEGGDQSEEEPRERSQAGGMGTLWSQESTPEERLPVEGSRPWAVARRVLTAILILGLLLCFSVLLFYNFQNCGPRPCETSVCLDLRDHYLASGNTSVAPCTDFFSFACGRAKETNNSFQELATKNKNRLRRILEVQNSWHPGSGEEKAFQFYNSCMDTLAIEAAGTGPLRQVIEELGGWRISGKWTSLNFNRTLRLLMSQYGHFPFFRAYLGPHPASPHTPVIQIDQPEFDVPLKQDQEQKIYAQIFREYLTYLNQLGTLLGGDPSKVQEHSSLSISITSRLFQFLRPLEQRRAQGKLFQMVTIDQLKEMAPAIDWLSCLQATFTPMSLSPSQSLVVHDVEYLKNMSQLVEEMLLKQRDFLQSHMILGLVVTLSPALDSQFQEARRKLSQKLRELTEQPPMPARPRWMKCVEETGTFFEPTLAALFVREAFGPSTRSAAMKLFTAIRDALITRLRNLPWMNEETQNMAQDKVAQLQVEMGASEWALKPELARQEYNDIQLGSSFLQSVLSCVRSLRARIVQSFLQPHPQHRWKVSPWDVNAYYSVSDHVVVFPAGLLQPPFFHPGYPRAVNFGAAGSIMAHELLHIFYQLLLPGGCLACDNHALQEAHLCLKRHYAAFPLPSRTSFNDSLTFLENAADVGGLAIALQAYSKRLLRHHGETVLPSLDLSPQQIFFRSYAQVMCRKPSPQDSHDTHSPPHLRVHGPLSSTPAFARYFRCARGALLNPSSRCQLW
# T3: Kell protease (Homo sapiens, UniProt P23276)
# T3 sequence (P23276 1-732): T2 sequence (P23276 1-732)
# B1: Kell protease: secreted recombinant wild-type human Kell blood group protein expressed in sf9 cells (protein)
# chain: T1 sequence (P23276 68-732)
# B2: Jsa: secreted form of Js^a Kell phenotype (L597P) (protein)
# chain: T1 sequence (P23276 68-732) with L530P
# How the values were obtained:
# Kell protein [1] = target: T1, Kell protein; test: Inhibition of Kell proteolytic activity by phosphoramidon; format: biochemical; settings: Kell protease; read-out: Concentration which gives 50% of inhibition
# Kell protein [2] = test: as above; format: biochemical, human
# [3] = system: hematopoiesis cell culture system; test: Hematopoiesis cell culture system grown on methyl cellulose plates; format: cell-based; settings: preliminary studies
# Description: Meanwhile, the concentration of phosphoramidon needed to inhibit the proteolytic cleavage of big-endothelins by ECE-1 and Kell protein are different. While it is not intended to be bound by theory, it is possible that Kell participates in the proteolytic processing of growth factors or cytokines during hematopoiesis.
# Kell protein [4] = target: T2, Kell protein; test: Bradykinin cleavage by Kell protein; format: biochemical
# [5] = system: Soluble Kell proteins (sKell); test: VIP cutting by sKell proteins; format: biochemical, human; settings: sf9 protein free media containing sKell
# Description: Soluble Kell proteins (sKell) proteins were used to cut vasoactive intestinal peptide (VIP).
# Kell protein [6] = target: T1, Kell protein; test: Digestion of big endothelins with soluble recombinant Kell protein, HPLC analysis; format: biochemical; settings: for cleavage by wild-type Kell and Jsa Kell: N-terminal sequencing and mass spectrometry of cleaved products, yields endothelins; for Km: measured by HPLC, read-out: substrate affinity for cleavage by Kell protein
# Description: Digestion of Big Endothelin-1,-2, and -3 (Big ET-1, -2, and -3) With Soluble Recombinant Proteins
# Enzyme reaction mixture was made by mixing 8-16 μl of 1 mg/ml big ET-1 (1-38), big ET-2 (1-37 or 1-38) and big ET-3 (1-41) (American Peptide Co., Sunnyvale, Calif. and Sigma, St. Louis, Mo. and Peptide Institute, Inc., Osaka, Japan), 10 μl 1 mM ZnCl2 final concentration 86 μM and 70 μl recombinant protein containing media. The mixture was incubated at 37° C. for different time periods. Twenty to 25 aliquots of this incubation mix was assayed by reverse HPLC. The conditions of the analysis were:
# Solvent A: 0.1% TFA/2,5% 1-Propanol (PrOH)/H2 O (500 μl
# Trifluoroacetic acid+1 L H2 O+25 ml 1-PrOH).
# Solvent B; 0.09% TFA/2.5% 1-PrOH/90% Acetonitrile/H2 O (450 μl
# TFA+1 L Acetonitrile+100 ml H2 O+25 ml 1-PrOH).
# Gradient condition was 1-61% A In B over 0-60 minutes at a flow rate of 0.15 ml/min. The column used was reverse phase C18 column (2×150 mm, Vydac).
# Kell protein [7] = target: T1, Kell protein; test: Digestion of big endothelins with soluble recombinant Kell protein, EIA assay; format: biochemical; settings: measured by EIA; 15 min; read-out: substrate affinity for cleavage by Kell protein
# Description: Enzyme reaction mix was made by mixing various amounts of 10 μM big ET's, 20 μl of 10 Kell assay buffer (0.5 M HEPES, 0.5 mM ZnCl2 and 1.5 NaCl containing 4% (v/v) of supernatant boiled BSA) and various amounts of soluble protein containing media (ranging from 0.0313 μl to 4 μl) and H2 O to make a total volume of 200 μl. The enzyme reaction was incubated at 37° C. for 15 min. At the end of the incubation time, 100 μl of 5 mM EDTA was added to terminate the reaction. Various amounts of the sample up to 100 μl were used in Enzyme-linked Immunoassay using Endothelin-1EIA kit (Cayman Chemical).
# [8] = target: Big Endothelin-1 (1-38) (Homo sapiens)
# [9] = target: Big Endothelin-3 (1-41) (Homo sapiens)
# Kell protease = target: T3, Kell protease; test: pH optimum of Kell protease; format: biochemical
molecule,measurement,setting,value
CC(C)C[C@H](NP(=O)(O)O[C@@H]1O[C@@H](C)[C@H](O)[C@@H](O)[C@H]1O)C(=O)N[C@@H](Cc1c[nH]c2ccccc12)C(=O)O [Phosphoramidon],IC50,Kell protein [1],50 to 100 µM
same,inhibition of Kell enzymatic activity,Kell protein [2],inhibited
same,effect on cell growth,[3]; higher concentration of phosphoramidon (50-100 μM),inhibited cell growth
same,effect on cell growth,[3]; low concentration of phosphoramidon (3.5-7.0 μM),increased cell growth
NC(N)=NCCC[C@H](NC(=O)[C@H](Cc1ccccc1)NC(=O)[C@@H]1CCCN1C(=O)[C@H](CO)NC(=O)[C@H](Cc1ccccc1)NC(=O)CNC(=O)[C@@H]1CCCN1C(=O)[C@@H]1CCCN1C(=O)[C@@H](N)CCCN=C(N)N)C(=O)O [bradykinin] (H-RPPGFSPFR-OH),cleavage by Kell protein,Kell protein [4],does not cleave
"VIP: vasoactive intestinal peptide (1-28), a vasodilator (HSDAVFTDNYTRLRKQMAVKKYLNSILN)",cleavage of VIP by soluble Kell,[5],cleaves
same,cleavage of VIP by soluble Kell,[5]; listed as vasoactive intestinal peptide (VIP),cleaved
"big-endothelin-1: inactive 38 amino acid precursor of endothelin-1, substrate of Kell protein (CSCSSLMDKECVYFCHLDIIWVNTPEHVVPYGLGSPRS)",cleavage by wild-type Kell and Jsa Kell,Kell protein [6],cleaved
same,Km,Kell protein [6],~80 µM
"big-endothelin-2: inactive precursor of endothelin-2, substrate of Kell protein (CSCSSWLDKECVYFCHLDIIWVNTPEQTAPYGEGNPP)",cleavage by wild-type Kell and Jsa Kell,Kell protein [6],cleaved
same,Km,Kell protein [6],~20 µM
"big-endothelin-3: inactive precursor of endothelin-3, substrate of Kell protein (CTCFTYKDKECVYYCHLDIIWVNTPEQTVPYGLSNYRGSFR)",Km,Kell protein [7],< 2 µM
same,cleavage by wild-type Kell and Jsa Kell,Kell protein [6],cleaved
"soluble wild type Kell (secreted form of wild-type Kell protein, extracellular portion, expressed in sf9 cells) (from UniProt P23276) (enzyme)",cleavage of big endothelin-1; substrate affinity (HPLC),[8],80 µM
same,cleavage of big endothelin-3; substrate affinity (EIA),[9],< 2 µM
same,cleavage of big endothelin-2; substrate affinity (HPLC),Big Endothelin-2 (1-37),20 µM
B1,pH optimum,Kell protease,6.0-6.5
B2,cleavage of VIP by soluble Kell,[5],cleaves more than wild type Kell
